This note sets out measurements from US20070192883A1.

Test [1] addresses TAT-028 protein on the surface of human tumor cell lines (NCI-H460, HEK293, HepG2) (human) (UniProt P80723). As to the kind of experiment: flow cytometry on HEK293 cells; secondary antibody only, background control.
Test [2] shares this target. As to the kind of experiment: flow cytometry on HepG2 cells; secondary antibody only, background control.
The target is the same in test [3]. The test can be described thus: flow cytometry on NCI-H460 cells; secondary antibody only, background control.

Sequence of UniProt P80723 (P80723 2-227 limits assumed): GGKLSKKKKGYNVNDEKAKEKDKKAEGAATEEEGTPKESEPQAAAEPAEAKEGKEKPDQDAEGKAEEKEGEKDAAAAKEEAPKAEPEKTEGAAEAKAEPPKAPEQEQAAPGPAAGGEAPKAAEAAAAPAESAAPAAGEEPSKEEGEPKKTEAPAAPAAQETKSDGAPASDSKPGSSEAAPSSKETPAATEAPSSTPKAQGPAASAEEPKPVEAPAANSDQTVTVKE

For the substance PE-conjugated anti-mouse IgG (antibody), the geometric mean fluorescence (geometric mean fluorescence units) was 124 in test [1], 178 in test [2] and 37 in test [3].
